Data from publication PMC4353811.

Tests used:
Psy3-Csm2 = biological target: T1, Psy3-Csm2 (Saccharomyces cerevisiae, UniProt Q12318;P40465 1-242;1-213); test: EMSA
T1 sequence 1: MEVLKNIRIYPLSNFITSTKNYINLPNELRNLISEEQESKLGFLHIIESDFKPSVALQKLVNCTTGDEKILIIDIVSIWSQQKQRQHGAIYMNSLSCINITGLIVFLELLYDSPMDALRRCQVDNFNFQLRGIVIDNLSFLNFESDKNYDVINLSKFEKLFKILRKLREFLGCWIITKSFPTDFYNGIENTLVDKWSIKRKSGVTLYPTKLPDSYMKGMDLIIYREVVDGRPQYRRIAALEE
T1 sequence 2: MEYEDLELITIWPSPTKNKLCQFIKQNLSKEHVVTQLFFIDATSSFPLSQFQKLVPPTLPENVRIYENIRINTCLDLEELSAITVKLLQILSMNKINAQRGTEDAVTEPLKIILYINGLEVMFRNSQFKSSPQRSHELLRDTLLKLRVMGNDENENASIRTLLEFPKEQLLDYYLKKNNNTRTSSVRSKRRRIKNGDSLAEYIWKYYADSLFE

Rad51;Psy3-Csm2 = Rad51;Psy3-Csm2 (Saccharomyces cerevisiae;Saccharomyces …, UniProt P25454;Q12318;P40465 1-400;1-242;1-213, |); test: EMSA and supershift
Chain of Rad51;Psy3-Csm2 (P25454 whole entry, one chain of several): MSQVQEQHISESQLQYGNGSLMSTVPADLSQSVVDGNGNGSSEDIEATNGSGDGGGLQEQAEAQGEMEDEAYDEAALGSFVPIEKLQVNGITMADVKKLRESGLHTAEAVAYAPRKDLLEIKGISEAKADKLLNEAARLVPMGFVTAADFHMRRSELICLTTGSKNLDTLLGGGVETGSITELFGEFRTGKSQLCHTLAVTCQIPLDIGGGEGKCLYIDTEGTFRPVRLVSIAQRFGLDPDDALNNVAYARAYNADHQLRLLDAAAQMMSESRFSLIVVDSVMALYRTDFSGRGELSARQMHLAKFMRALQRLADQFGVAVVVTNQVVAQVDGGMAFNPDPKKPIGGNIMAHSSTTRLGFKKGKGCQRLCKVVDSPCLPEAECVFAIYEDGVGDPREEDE

Psy3-Csm2-I40A/I83A = biological target: T2, Psy3-Csm2-I40A/I83A (Saccharomyces cerevisiae, UniProt Q12318;P40465 1-242;1-213, I40A;I83A;Csm2:); test: EMSA
T2 sequence 1: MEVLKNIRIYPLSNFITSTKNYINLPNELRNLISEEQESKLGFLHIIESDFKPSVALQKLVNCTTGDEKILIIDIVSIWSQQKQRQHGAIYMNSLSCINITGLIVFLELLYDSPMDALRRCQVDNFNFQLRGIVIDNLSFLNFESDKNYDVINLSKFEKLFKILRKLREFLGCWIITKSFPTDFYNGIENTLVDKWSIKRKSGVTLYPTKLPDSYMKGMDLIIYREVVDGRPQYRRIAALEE
T2 sequence 2: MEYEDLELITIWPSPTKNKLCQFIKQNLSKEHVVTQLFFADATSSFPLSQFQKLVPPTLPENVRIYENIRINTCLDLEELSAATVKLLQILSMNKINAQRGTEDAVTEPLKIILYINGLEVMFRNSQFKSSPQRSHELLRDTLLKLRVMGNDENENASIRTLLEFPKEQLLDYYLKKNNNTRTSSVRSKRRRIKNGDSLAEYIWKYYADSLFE

Psy3-Csm2-I83A/L87A = biological target: T3, Psy3-Csm2-I83A/L87A (Saccharomyces cerevisiae, UniProt Q12318;P40465 1-242;1-213, I83A;L87A;Csm2:); test: EMSA
T3 sequence 1: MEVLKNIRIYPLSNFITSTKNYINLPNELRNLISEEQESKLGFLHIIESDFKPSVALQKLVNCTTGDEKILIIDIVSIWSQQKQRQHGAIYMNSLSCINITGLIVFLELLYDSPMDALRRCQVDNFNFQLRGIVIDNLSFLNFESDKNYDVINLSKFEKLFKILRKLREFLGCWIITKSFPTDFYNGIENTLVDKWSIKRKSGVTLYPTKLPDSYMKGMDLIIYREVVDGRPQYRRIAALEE
T3 sequence 2: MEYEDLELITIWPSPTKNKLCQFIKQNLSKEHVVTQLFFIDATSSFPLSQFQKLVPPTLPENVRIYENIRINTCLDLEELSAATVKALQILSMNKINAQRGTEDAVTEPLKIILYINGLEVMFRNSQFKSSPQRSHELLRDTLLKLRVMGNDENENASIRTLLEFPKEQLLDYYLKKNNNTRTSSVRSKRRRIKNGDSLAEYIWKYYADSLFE

Measured: binding result

B1: 60-mer oligo-ssDNA (ssDNA)
DNA: TGGGTGAACCTGCAGGTGGGCAAAGATGTCCTAGCAATCCATTGTCTATGACGTCAAGCT
binds: Psy3-Csm2 | Rad51;Psy3-Csm2 | Psy3-Csm2-I40A/I83A | Psy3-Csm2-I83A/L87A
